{"source": "patent US20070244048A1", "about": "(published 2007)", "target": "T1, mouse NMUR1-CTG (mouse, UniProt O55040 1-428)", "T1 sequence (looked up)": "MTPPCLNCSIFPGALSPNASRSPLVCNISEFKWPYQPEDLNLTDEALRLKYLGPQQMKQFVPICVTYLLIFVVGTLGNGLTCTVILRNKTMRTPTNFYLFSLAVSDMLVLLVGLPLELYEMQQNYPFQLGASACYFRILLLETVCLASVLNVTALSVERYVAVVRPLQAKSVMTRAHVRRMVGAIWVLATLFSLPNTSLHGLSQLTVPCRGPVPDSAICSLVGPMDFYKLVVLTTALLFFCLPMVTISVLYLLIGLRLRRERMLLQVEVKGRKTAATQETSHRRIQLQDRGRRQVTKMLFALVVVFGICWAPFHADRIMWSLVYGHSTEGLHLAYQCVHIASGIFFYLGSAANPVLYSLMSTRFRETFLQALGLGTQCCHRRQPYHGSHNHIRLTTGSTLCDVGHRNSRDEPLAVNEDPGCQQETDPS", "experiment": "cell-based or functional assay", "note": "No end group written: not given here."}
{"binder": "FRVDEEFQSPFASQSRGYFLFRPRN-NH2 (also called hNMU-25; native hNMU)", "note": "[human NMU-25]", "values": [{"measurement": "IC50 (nM), functional", "result": 2.9, "unit": "nM"}]}
